Experimental findings from article PMC10439028, “SGLT5 is the renal transporter for 1,5-anhydroglucitol, a major player in two rare forms of neutropenia” (Cellular and Molecular Life Sciences: CMLS, 2023) are described below.

Substrate in the series: OC[C@H]1OC[C@H](O)[C@@H](O)[C@@H]1O
Put plainly: 1,5-AG uptake in HEK293T cells overexpressing SGLT5 variant Ala522Val. The settings on record: other: variant Ala522Val (rs12604020); pH 7.4; 37.0 °C. Format: cell-based, human. The method, then: For a typical transporter experiment we proceeded as follows. […] To minimize cell loss during the various washing steps in the radioactive uptake experiments, the wells where the cells were seeded were previously coated with poly- D-lysine, which improved their adhesion to the plastic surface of the wells. For this, each well of the 24-well plates was treated with 200 µl of a 0.01% poly-L-lysine solution for 10 min, washed 3 times with 1 ml of sterilized water and left to dry for 2 h. Only then could the 24-well plates be seeded with the appropriate cell lines and cultured overnight at 37 °C in 5% CO2.
On day two, the radioactive uptake assay could be performed. The cell culture media was removed by aspiration and cells were incubated for 20 min at 37 °C and 5% CO2 with a basal medium (10 mM HEPES, pH 7.4, 1 mM CaCl2, 1 mM MgCl2, 2 mM KCl) containing 140 mM choline chloride to deplete intracellular Na^2+ ions. […]
Once the uptake medium was added to the cells, the plates were incubated at 37 °C in 5% CO2 during the required time. […] In each experiment, the transport activities were calculated after subtracting a “blank” value, corresponding to the radioactivity in the appropriate control cells (HEK293T cells that were stably or transiently transfected with one of the parent plasmids pEF6/MycHisA, pEF6HisB, pUB82 or pUB83 with no inserted cDNA) that were analyzed in parallel. […]

B1: hSGLT5 Ala522Val (Homo sapiens; A522V) (protein)
chain: MAANSTSDLHTPGTQLSVADIIVITVYFALNVAVGIWSSCRASRNTVNGYFLAGRDMTWWPIGASLFASSEGSGLFIGLAGSGAAGGLAVAGFEWNATYVLLALAWVFVPIYISSEIVTLPEYIQKRYGGQRIRMYLSVLSLLLSVFTKISLDLYAGALFVHICLGWNFYLSTILTLGITALYTIAGGLAAVIYTDALQTLIMVVGAVILTIKAFDQIGGYGQLEAAYAQAIPSRTIANTTCHLPRTDAMHMFRDPHTGDLPWTGMTFGLTIMATWYWCTDQVIVQRSLSARDLNHAKAGSILASYLKMLPMGLIIMPGMISRALFPDDVGCVVPSECLRACGAEVGCSNIAYPKLVMELMPIGLRGLMIAVMLAALMSSLTSIFNSSSTLFTMDIWRRLRPRSGERELLLVGRLVIVALIGVSVAWIPVLQDSNSGQLFIYMQSVTSSLAPPVTAVFVLGVFWRRANEQGAFWGLIAGLVVGATRLVLEFLNPAPPCGEPDTRPAVLGSIHYLHFAVALFVLSGAVVVAGSLLTPPPQSVQIENLTWWTLAQDVPLGTKAGDGQTPQKHAFWARVCGFNAILLMCVNIFFYAYFA
notes: pUB83-hSGLT5-iso2 as well as the various SGLT5 mutants obtained were used to transduce HEK293T cells; expressed in transfected cells; host or cells: HEK293T, lentiviral transduction (pUB83)
As usually defined, the Km is the concentration of substrate that gives half-maximal velocity. As for B1, the Michaelis constant (Km) was found to be 210 ± 12 µM.
